From paper PMC10257657 (Nature Communications, 2023)

Biological target: the molecule itself
Experiment: AUC; analytical ultracentrifugation of VibO (Supplementary Fig. 24b); conditions not shown

B1: VibO, NADPH/FAD-dependent monooxygenase (oxepinone-forming enzyme) of Boreostereum vibrans (enzyme)
chain: MAAVENFEGYVEPELFERPGTSLPNKLGVMPQLTWPNVLNGTNCEKPAVPNYKPPSKVDVIIIGAGPVGLTTAACLLRQGITVRILDRSPHPLPVGRADGLQPRSMEVFDLLGLGEEVYHVGIRVEHTTVYKDGKQHIFAESHQAPGNEAHYTGLHACTQTEVEHLLIRDLIRHDILVERPCTATSYTFDEEADASVTHPITVNITNEATGAEEVVTARFLVGSDGAHSMIRKSLPIEFPGVKTDLHWGIVDAVINSDFPHRWTFGTVLNSEYGGCLIIPRERNMVRLYVQLRAEPGKAFDHSKWGPEEILVILNKVFAPYTLSYAEPVDWYTILTINERVATSFTYKDRIFLAGDSCHVHSAKGAFGMNTGVMDAHNLAWKLAMLCRGIAKPSLLASYDVERRENALRAVATSARYLRFVGNCTFQAIDGSGEVDKEADELVVPPGEDKDVFYFKKFVGQVGRFLIGLDVDYAENALNKLSPAVSRARAGYRASNPRVALSRSHSGRLYHSFGHLGQFTLLVFASNMGGALNAKLHALDSYLAGPSSFYHAYGGADTFKIVVVVRATPSQADQRVKTFPFLSKAGHTVYDDQLPLSHFGGDAHALYGVSHEEGAIVVVRPDSWIGTSSTISDARSLESYFDGFLFKSTEGSY
For B1, the “stoichiometry N” value was 2.
